In IntAct's records for PubMed 38225382:

B1: Syntaxin-1B (Homo sapiens), P61266 (parent)
chain: MKDRTQELRSAKDSDDEEEVVHVDRDHFMDEFFEQVEEIRGCIEKLSEDVEQVKKQHSAILAAPNPDEKTKQELEDLTADIKKTANKVRSKLKAIEQSIEQEEGLNRSSADLRIRKTQHSTLSRKFVEVMTEYNATQSKYRDRCKDRIQRQLEITGRTTTNEELEDMLESGKLAIFTDDIKMDSQMTKQALNEIETRHNEIIKLETSIRELHDMFVDMAMLVESQGEMIDRIEYNVEHSVDYVERAVSDTKKAVKYQSKARRKKIMIIICCVVLGVVLASSIGGTLGL
partner: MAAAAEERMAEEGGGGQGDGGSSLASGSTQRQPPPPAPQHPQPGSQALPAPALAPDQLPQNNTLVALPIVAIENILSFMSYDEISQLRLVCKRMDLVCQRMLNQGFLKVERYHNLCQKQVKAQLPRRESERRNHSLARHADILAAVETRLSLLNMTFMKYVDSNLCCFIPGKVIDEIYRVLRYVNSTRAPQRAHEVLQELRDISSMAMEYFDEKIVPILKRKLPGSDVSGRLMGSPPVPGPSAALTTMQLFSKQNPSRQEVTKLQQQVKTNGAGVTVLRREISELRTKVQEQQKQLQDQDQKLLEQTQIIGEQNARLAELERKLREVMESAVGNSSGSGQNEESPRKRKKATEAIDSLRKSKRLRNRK

Variants of: B1
Conditions: with fbx28_human FBXO28, Q9NVF7

Variant	effect of a mutation on the interaction
N134E	with no effect
V216E	decreasing interaction strength
G226R	decreasing interaction strength
S239P	decreasing interaction strength
